Source: US20230167501

Biological target: T1, PEG10 gag
T1 chain: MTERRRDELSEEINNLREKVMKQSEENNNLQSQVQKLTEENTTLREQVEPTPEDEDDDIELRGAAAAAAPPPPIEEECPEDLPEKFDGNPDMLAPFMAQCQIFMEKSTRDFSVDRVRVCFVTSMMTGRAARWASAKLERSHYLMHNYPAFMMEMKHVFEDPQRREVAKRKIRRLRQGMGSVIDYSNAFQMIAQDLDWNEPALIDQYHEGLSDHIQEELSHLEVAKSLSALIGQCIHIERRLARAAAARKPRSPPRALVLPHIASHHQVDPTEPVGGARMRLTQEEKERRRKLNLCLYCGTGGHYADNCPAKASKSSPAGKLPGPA

B1: PEG10 gag-pol (protein)
chain: MTERRRDELSEEINNLREKVMKQSEENNNLQSQVQKLTEENTTLREQVEPTPEDEDDDIELRGAAAAAAPPPPIEEECPEDLPEKFDGNPDMLAPFMAQCQIFMEKSTRDFSVDRVRVCFVTSMMTGRAARWASAKLERSHYLMHNYPAFMMEMKHVFEDPQRREVAKRKIRRLRQGMGSVIDYSNAFQMIAQDLDWNEPALIDQYHEGLSDHIQEELSHLEVAKSLSALIGQCIHIERRLARAAAARKPRSPPRALVLPHIASHHQVDPTEPVGGARMRLTQEEKERRRKLNLCLYCGTGGHYADNCPAKASKSSPAGKLPGPAVEGPSATGPEIIRSPQDDASSPHLQVMLQIHLPGRHTLFVRAMIDSGASGNFIDHEYVAQNGIPLRIKDWPILVEAIDGRPIASGPVVHETHDLIVDLGDHREVLSFDVTQSPFFPVVLGVRWLSTHDPNITWSTRSIVFDSEYCRYHCRMYSPIPPSLPPPAPQPPLYYPVDGYRVYQPVRYYYVQNVYTPVDEHVYPDHRLVDPHIEMIPGAHSIPSGHVYSLSEPEMAALRDFVARNVKDGLITPTIAPNGAQVLQVKRGWKLQVSYDCRAPNNFTIQNQYPRLSIPNLEDQAHLATYTEFVPQIPGYQTYPTYAAYPTYPVGFAWYPVGRDGQGRSLYVPVMITWNPHWYRQPPVPQYPPPQPPPPPPPPPPPPSYSTL
  presence of HA-tagged cleavage products by western blot after co-transfection: PEG10 gag-pol was capable of cleaving PEG10 gag in trans
